# T1: a-subunit of the yeast ATP synthase Fo (yeast (strain W303-1A background), UniProt P00854 11-259)
# T1 sequence (looked up): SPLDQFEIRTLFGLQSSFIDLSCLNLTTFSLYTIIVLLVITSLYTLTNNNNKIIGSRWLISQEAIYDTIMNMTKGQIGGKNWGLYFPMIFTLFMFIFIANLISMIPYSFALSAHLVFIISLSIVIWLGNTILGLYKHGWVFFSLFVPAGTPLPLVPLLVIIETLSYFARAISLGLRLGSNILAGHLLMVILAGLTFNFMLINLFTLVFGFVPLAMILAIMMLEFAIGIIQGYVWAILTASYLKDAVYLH
# B1: c-subunit of the yeast ATP synthase Fo (c10-ring) (natural protein, yeast (strain W303-1A background), UniProt P61829 1-76, looked up)
# chain: MQLVLAAKYIGAGISTIGLLGAGIGIAIVFAALINGVSRNPSIKDTVFPMAILGFALSEATGLFCLMVSFLLLFGV
# Legend:
# [1] = target: T1, a-subunit of the yeast ATP synthase Fo; assay: cryo-EM structure
# cryo-EM structure = target: the molecule itself; assay: cryo-EM structure
binder,measurement,setting,value
B1,binding result,[1],binds
same,stoichiometry N,cryo-EM structure,10

# Reference: PMC5948177 (Science (New York, N.Y.), 2018)
